Laboratory results taken from patent US20240025993A1, “CD19 BINDING MOLECULES AND USES THEREOF” (NOVARTIS AG, priority 2020, published 2024).
Where a chain is given by its changes, count along the chain named. Each block holds one binder with its values, some of them ahead of it.

Target: CD3-Fc
Assay: SPR (Biacore T200, 25 C), CD3-Fc captured on anti-hFc CM5 chip, antibody as analyte, 1:1 model

- Kd: 16 nM
B1: anti-CD3 antibody designated as CD3hi (antibody, V domains shown)
VH: EVQLVESGGGLVQPGGSLKLSCAASGFTFNTYAMNWVRQASGKGLEWVGRIRSKYNNYATYYADSVKDRFTISRDDSKSTLYLQMNSLKTEDTAVYYCVRHGNFGNSYVSWFAYWGQGTLVTVSS
VL: QAVVTQEPSLTVSPGGTVTLTCRSSTGAVTTSNYANWVQQKPGQAPRGLIGGTNKRAPWTPARFSGSLLGDKAALTLSGAQPEDEAEYFCALWYSNLWVFGGGTKLTVL

- Kd: 30 nM
B2: anti-CD3 antibody designated as CD3med (antibody, V domains shown)
VH: B1 VH with S79N, L81A, Y114H
VL: B1 VL with R23G, T31S, D71G, F89Y

- Kd: 48 nM
B3: anti-CD3 antibody designated as CD3lo (antibody, V domains shown)
VH: B1 VH with L81A
VL: B1 VL
